Data: US20060062797A1 (RESEARCH FOUNDATION OF STATE UNIVERSITY OF NEW YORK AT …, published 2006)
One block for each binder: values may come before it. No end group written: not given here.

Key:
[1] = target: the molecule itself; experiment: 2D solid-state NMR (DARR) on fibrils, self-association
[2] = target: Aβ1-42 peptide (SEQ ID NO: 157) (Homo sapiens (Human), UniProt P05067 672-713); experiment: cell-based or functional assay

B1: truncated glycophorin A peptide GpA70-86 (SEQ ID NO: 158) (peptide)
peptide: EPEITLIIFGVMAGVIG
modifications: not fully specified
notes: 17-residue fragment of glycophorin A, residues 70-86, that forms fibrils; NMR samples were 13C-labelled at Gly79, Gly83 or the Met81 methyl; also called truncated GpA; glycophorin A transmembrane peptide fragment
binding result [1]: binds

thioflavin T fluorescence, inhibition of fibrillization at Aβ1-42:I1 molar ratio 1:20 [2]: 70%
Binder: RGTFEGKF-NH2 (not fully specified; printed as RGTFEGKF-NH2) [amyloid fibril inhibitor protein RGTFEGKF-NH2 (SEQ ID NO: 1)]
